Measurements taken from US20030037355, “Methods and compositions to modulate expression in plants” (published 2003).

B1: c5p3-g (dsDNA)
DNA: GGCTCTGCTCATCCCACTACGGGTTTTCCCGTAGTGGGATGAGCAGAGCC
B2: m12 hairpin oligo (dsDNA)
DNA: GGAGCCTCCTTCCTCCTCTCACTCGGGTTTTCCCGAGTGAGAGGAGGAAGGAGGCTCC
B3: hHD-I (dsDNA)
DNA: GGGGCCCCGCCTCCGCCGGCGGGTTTTCCCGCCGGCGGAGGCGGGGCCCC
B4: m34 hairpin oligo (dsDNA)
DNA: GGAGCCAACTACTACGGCTCCCTCACCGGGTTTTCCCGGTGAGGGAGCCGTAGTAGTTGGCTCC
B5: hHD-II (dsDNA)
DNA: GGGGCAGCCCCCACGGCGCCGGGTTTTCCCGGCGCCGTGGGGGCTGCCCC
B6: NRI-1 (dsDNA)
DNA: GGTTCTACCCCTCCCACCGCGGGTTTTCCCGCGGTGGGAGGGGTAGAACC
B7: e2c-g (dsDNA)
DNA: GGCACTGCGGCTCCGGCCCCGGGTTTTCCCGGGGCCGGAGCCGCAGTGCC
B8: AP3 endogenous target site (dsDNA)
DNA 1: GATGGAGTTGAAGAAGTA
DNA 2: TACTTCTTCAACTCCATC
B9: NRI-2 (dsDNA)
DNA: GGTGCGGCGACTGCAGCAGCGGGTTTTCCCGCTGCTGCAGTCGCCGCACC
B10: Ap3 hairpin oligo (dsDNA)
DNA: GGTTACTTCTTCAACTCCATCGGGTTTTCCCGATGGAGTTGAAGAAGTAACC
B11: c5c1-g (dsDNA)
DNA: GGGACACCCCCAACCCCGCCGGGTTTTCCCGGCGGGGTTGGGGGTGTCCC
B12: B3c2 (dsDNA)
DNA: GGACCCACCGCGTCCCCTCCGGGTTTTCCCGGAGGGGACGCGGTGGGTCC
B13: m4 endogenous MIPS target site (dsDNA)
DNA 1: GGTGAGGGAGCCGTAGTA
DNA 2: TACTACGGCTCCCTCACC

Legend:
[1] = target: T1, ZFPAp3 six-finger zinc finger protein (Sp1C framework) (artificial); experiment: ELISA, 31.0 ug/ml protein, non-target; settings: tags: MBP fusion (pMAL-C2), E. coli, hairpin
Protocol: (§1) Coat ELISA plates (Costar 3690) with streptavidin. Use 25 ul/well of 8 ug/ml streptavidin in PBS. Incubate at 37° C. for 1 hr. Wash 2× with dH2O. Bind wells with 25 ul/well of 4 ng/ul biotinylated target oligonucleotide in PBS. Incubate at 37° C. for 1 hr. Wash 2× with dH2O. Block with 175 ul/well of 3% BSA in Zn Buffer A. Incubate at 37° C. for 1 hr. Tap plates dry. Perform 1:2 serial dilutions of extract in Binding Buffer (1%BSA, 5 mM DTT, .12 ug/ul Salmon Sperm DNA in ZnBA). Usually from 1:4 to 1:512 for multi-target ELISA or 1:4 to 1:32 for screening clones for specific DNA binding activity. Incubate 1 hr at room temperature. Wash 8× with dH2O. Add primary antibody: 25 ul/well of 1:1000 dilution of mouse anti-MBP (Sigma M-6295) in 1%BSA ZnBA (no DTT). Incubate 30 min at room temperature. Wash 8× with dH2O. Add secondary antibody: 25 ul/well of 1:1000 dilution of goat anti-mouse/Alkaline Phosphatase (Pierce 31324) in 1%BSA ZnBA (no DTT). Incubate 30 min at room temperature. Wash 8× with dH2O. Develop with 25 ul developer (1 tablet of Sigma 104 Phosphatase Substrate (Sigma 104-105)/5 ml AP Developing Buffer [100 ml diethanolamine+0.05 g MgCl2+97.5 Sodium Azide, adjust to 500 ml with ddH2O, pH 9.88]). Incubate at room temperature for 5-60 min until color reaction is yellow. Read A405 with a plate reader.
(§2) To evaluate the specificity of new zinc finger protein, the affinity of each protein was determined for binding to the target sequence and several non-target sequences at appropriate protein concentration. For example, to protein ZFPm1 and ZFPm2, the non-target oligoes are: Oligo m34 (SEQ ID NO:20), Oligo Ap3 (SEQ ID NO:21), NRI-1 (SEQ ID NO:22), NRI-2 (SEQ ID NO:23), hHD-I (SEQ ID NO:24), hHD-II (SEQ ID NO:25), c5cl-g (SEQ ID NO:26), c5p3-g (SEQ ID NO:27), B3c2 (SEQ ID NO:28), and e2c-g (SEQ ID NO:29). Similarly, to protein ZFPm3 and ZFPm4, the non-target oligoes are Oligo m12 (SEQ ID NO:19), oligo Ap3 (SEQ ID NO:21), and the eight other oligoes. To protein ZFPAp3, the non-target oligoes are Oligo m12, oligo m34 (SEQ ID NO:20), and the eight other oligoes. The affinity reading for target oligo was further normalized to the no oligo control which has the least affinity.

[2] = target: T2, ZFPm1 six-finger zinc finger protein (Sp1C framework) (artificial); experiment: ELISA, 31.0 ug/ml protein, non-target; settings: tags: MBP fusion (pMAL-C2), E. coli, hairpin
Protocol: as §1, §2

[3] = target: T3, ZFPm3 six-finger zinc finger protein (Sp1C framework) (artificial); experiment: ELISA, 1.9 ug/ml protein, non-target; settings: tags: MBP fusion (pMAL-C2), E. coli, hairpin
Protocol: as §1, §2

[4] = target: T4, ZFPm4 six-finger zinc finger protein (Sp1C framework) (artificial); experiment: ELISA, 15.5 ug/ml protein, non-target; settings: tags: MBP fusion (pMAL-C2), E. coli, hairpin
Protocol: as §1, §2

[5] = target: T5, ZFPm2 six-finger zinc finger protein (Sp1C framework) (artificial); experiment: ELISA, 15.5 ug/ml protein, non-target; settings: tags: MBP fusion (pMAL-C2), E. coli, hairpin
Protocol: as §1, §2

[6] = target: T2, ZFPm1 six-finger zinc finger protein …; experiment: ELISA, 31.0 ug/ml protein; settings: tags: MBP fusion (pMAL-C2), E. coli; label: 5'-biotin (ELISA); 32P (gel shift); hairpin
Protocol: as §1, with “Develop with 25 ul developer (1 tablet of Sigma 104 Phosphatase Substrate (Sigma 104-105)/5 ml AP Developing Buffer [100 ml diethanolamine+0.05 g MgCl2+97.5 Sodium Azide, adjust to 500 ml with ddH2O, pH 9.88]). Incubate at room temperature for 5-60 min until color reaction is yellow.” left out
(§3) To evaluate the specificity of new zinc finger protein, the affinity of each protein was determined for binding to the target sequence and several non-target sequences at appropriate protein concentration. […] The affinity reading for target oligo was further normalized to the no oligo control which has the least affinity.

[7] = target: T5, ZFPm2 six-finger zinc finger protein …; experiment: EMSA; Zn Buffer A, 10% glycerol, 0.8% BSA, salmon sperm DNA, room temp; settings: tags: MBP fusion (pMAL-C2), E. coli; label: 5'-biotin (ELISA); 32P (gel shift); hairpin
Protocol: (§4) The affinity of the purified six-finger proteins was measured using gel shift assay. The target oligos used in the ELISA assays were radioactively labeled using [γ32P]-ddATPk and terminal transferase. Ten serial dilutions of 1:3 with the purified protein (starting with ˜1 mg/ml) in binding buffer (1 pM labeled oligo, 10% Glycerol, 0.8% BSA, 0.1 ug/ul salmon sperm DNA in Zn Buffer A) were performed. The ZFP was allowed to bind at room temperature for 1 hr. The samples were then run on 5-6% non-denaturing PAGE gel in TBE. The gel was dried and exposed with Phosphoimager. The affinity (Kd) of the ZFP was calculated from this gel. The Kd value is the concentration of the protein at which half of the labeled oligo is shifted to a higher molecular weight on the gel by binding to the ZFP. […] Most of these affinities compare favorably with the existed 6 finger proteins.

[8] = target: T2, ZFPm1 six-finger zinc finger protein …; experiment: as above; settings: tags: MBP fusion (pMAL-C2), E. coli; label: 5'-biotin (ELISA); 32P (gel shift); hairpin
Protocol: as §4

[9] = target: T5, ZFPm2 six-finger zinc finger protein …; experiment: ELISA, 15.5 ug/ml protein; settings: tags: MBP fusion (pMAL-C2), E. coli; label: 5'-biotin (ELISA); 32P (gel shift); hairpin
Protocol: as §1, with “Develop with 25 ul developer (1 tablet of Sigma 104 Phosphatase Substrate (Sigma 104-105)/5 ml AP Developing Buffer [100 ml diethanolamine+0.05 g MgCl2+97.5 Sodium Azide, adjust to 500 ml with ddH2O, pH 9.88]). Incubate at room temperature for 5-60 min until color reaction is yellow.” left out
as §3

[10] = target: T3, ZFPm3 six-finger zinc finger protein …; experiment: ELISA, 1.9 ug/ml protein; settings: tags: MBP fusion (pMAL-C2), E. coli; label: 5'-biotin (ELISA); 32P (gel shift); hairpin
Protocol: as §1, with “Develop with 25 ul developer (1 tablet of Sigma 104 Phosphatase Substrate (Sigma 104-105)/5 ml AP Developing Buffer [100 ml diethanolamine+0.05 g MgCl2+97.5 Sodium Azide, adjust to 500 ml with ddH2O, pH 9.88]). Incubate at room temperature for 5-60 min until color reaction is yellow.” left out
as §3

[11] = target: T4, ZFPm4 six-finger zinc finger protein …; experiment: EMSA; Zn Buffer A, 10% glycerol, 0.8% BSA, salmon sperm DNA, room temp; settings: tags: MBP fusion (pMAL-C2), E. coli; label: 5'-biotin (ELISA); 32P (gel shift); hairpin
Protocol: as §4

[12] = target: T3, ZFPm3 six-finger zinc finger protein …; experiment: as above; settings: tags: MBP fusion (pMAL-C2), E. coli; label: 5'-biotin (ELISA); 32P (gel shift); hairpin
Protocol: as §4

[13] = target: T4, ZFPm4 six-finger zinc finger protein …; experiment: ELISA, 15.5 ug/ml protein; settings: tags: MBP fusion (pMAL-C2), E. coli; label: 5'-biotin (ELISA); 32P (gel shift); hairpin
Protocol: as §1, with “Develop with 25 ul developer (1 tablet of Sigma 104 Phosphatase Substrate (Sigma 104-105)/5 ml AP Developing Buffer [100 ml diethanolamine+0.05 g MgCl2+97.5 Sodium Azide, adjust to 500 ml with ddH2O, pH 9.88]). Incubate at room temperature for 5-60 min until color reaction is yellow.” left out
as §3

SID-ZFPAp3 = SID-ZFPAp3 (artificial); experiment: cell_activity; endogenous AP3, transgenic Arabidopsis ND0052-2e; 5 fold in ND0052-257; settings: tags: SID
[14] = target: T1, ZFPAp3 six-finger zinc finger protein …; experiment: ELISA, 31.0 ug/ml protein; settings: tags: MBP fusion (pMAL-C2), E. coli; label: 5'-biotin (ELISA); 32P (gel shift); hairpin
Protocol: as §1, with “Develop with 25 ul developer (1 tablet of Sigma 104 Phosphatase Substrate (Sigma 104-105)/5 ml AP Developing Buffer [100 ml diethanolamine+0.05 g MgCl2+97.5 Sodium Azide, adjust to 500 ml with ddH2O, pH 9.88]). Incubate at room temperature for 5-60 min until color reaction is yellow.” left out
as §3

[15] = target: T1, ZFPAp3 six-finger zinc finger protein …; experiment: EMSA; Zn Buffer A, 10% glycerol, 0.8% BSA, salmon sperm DNA, room temp; settings: tags: MBP fusion (pMAL-C2), E. coli; label: 5'-biotin (ELISA); 32P (gel shift); hairpin
Protocol: as §4

ZFPm4-VP64 = ZFPm4-VP64 (artificial); experiment: cell_activity; endogenous MIPS in maize HE89 protoplasts; settings: tags: VP64
Source text: A maize type II cell line HE89 was used to evaluate the ZFPmips-effector fusion constructs function (FIG. 22). Protoplasts from HE89 suspension cells were isolated and transformed using standard procedures (Chourey and Zurawski, 1981). The activation constructs pND3015, pND3023, pND3024, and pND3016 were transformed into freshly prepared protoplasts. The transcription level of MIPS gene was detected through quantitative PCR. With pND3016 (ZFPm4-VP64 activation constructs), at least 2-fold of activation is detected (FIG. 23). We also measured phytic acid concentration in maize tissues that were transformed by the activation construct of pND3016.

[16] = label: 5'-biotin (ELISA), 32P (gel shift)

T3 sequence (chain, as listed by the source): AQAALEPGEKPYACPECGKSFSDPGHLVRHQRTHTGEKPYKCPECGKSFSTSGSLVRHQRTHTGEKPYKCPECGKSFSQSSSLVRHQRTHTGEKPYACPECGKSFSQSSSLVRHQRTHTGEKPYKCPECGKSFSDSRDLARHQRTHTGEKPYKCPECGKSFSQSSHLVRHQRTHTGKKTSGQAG
T1 sequence (chain, as listed by the source): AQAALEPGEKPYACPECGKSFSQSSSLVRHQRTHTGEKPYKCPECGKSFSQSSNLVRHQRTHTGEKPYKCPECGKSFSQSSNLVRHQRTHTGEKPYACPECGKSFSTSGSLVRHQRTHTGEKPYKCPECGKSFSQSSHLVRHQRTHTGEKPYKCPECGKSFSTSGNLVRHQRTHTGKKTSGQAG
T2 sequence (chain, as listed by the source): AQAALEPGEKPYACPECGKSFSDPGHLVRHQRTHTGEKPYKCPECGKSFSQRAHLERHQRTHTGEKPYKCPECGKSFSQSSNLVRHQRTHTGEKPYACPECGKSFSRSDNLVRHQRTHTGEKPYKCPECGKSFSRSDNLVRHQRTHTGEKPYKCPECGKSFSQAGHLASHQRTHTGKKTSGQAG
T5 sequence (chain, as listed by the source): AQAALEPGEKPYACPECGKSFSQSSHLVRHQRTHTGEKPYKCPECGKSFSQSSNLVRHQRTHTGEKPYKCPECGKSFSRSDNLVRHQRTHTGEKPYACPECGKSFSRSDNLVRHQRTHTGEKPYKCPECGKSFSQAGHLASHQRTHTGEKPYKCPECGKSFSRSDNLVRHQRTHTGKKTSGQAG

Binder | binding signal ([1]; label: 5'-biotin) | binding signal ([2]; label: 5'-biotin) | binding signal ([3]; label: 5'-biotin) | binding signal ([4]; label: 5'-biotin) | binding signal ([5]; label: 5'-biotin) | further results
B1 | 2 fold over no oligo | 3 fold over no oligo | 3 fold over no oligo | 2 fold over no oligo | 3 fold over no oligo | 
B2 |  |  |  |  |  | binding signal [1, 16]: 14 fold over no oligo; binding signal [6]: 18 fold over no oligo; Kd [7]: 7.5 nM; Kd [8]: 2 nM; binding signal [3, 16]: 3 fold over no oligo; binding signal [4, 16]: 4 fold over no oligo; binding signal [9]: 23 fold over no oligo
B3 | 2 fold over no oligo | 5 fold over no oligo | 1 fold over no oligo | 2 fold over no oligo | 3 fold over no oligo | 
B4 |  |  |  |  |  | binding signal [10]: 13 fold over no oligo; binding signal [1, 16]: 10 fold over no oligo; binding signal [2, 16]: 5 fold over no oligo; Kd [11]: 0.25 nM; Kd [12]: 0.18 nM; binding signal [5, 16]: 13 fold over no oligo; binding signal [13]: 16 fold over no oligo
B5 | 2 fold over no oligo | 4 fold over no oligo | 3 fold over no oligo | 2 fold over no oligo | 2 fold over no oligo | 
B6 | 8 fold over no oligo | 5 fold over no oligo | 4 fold over no oligo | 5 fold over no oligo | 7 fold over no oligo | 
B7 | 3 fold over no oligo | 2 fold over no oligo | 9 fold over no oligo | 5 fold over no oligo | 2 fold over no oligo | 
B8 |  |  |  |  |  | activity (SID-ZFPAp3): 46 fold repression
B9 | 4 fold over no oligo | 4 fold over no oligo | 6 fold over no oligo | 3 fold over no oligo | 2 fold over no oligo | 
B10 |  |  |  |  |  | binding signal [2, 16]: 4 fold over no oligo; binding signal [14]: 27 fold over no oligo; Kd [15]: 2.3 nM; binding signal [3, 16]: 7 fold over no oligo; binding signal [4, 16]: 2 fold over no oligo; binding signal [5, 16]: 3 fold over no oligo
B11 | 2 fold over no oligo | 7 fold over no oligo | 3 fold over no oligo | 3 fold over no oligo | 5 fold over no oligo | 
B12 | 3 fold over no oligo | 4 fold over no oligo | 3 fold over no oligo | 5 fold over no oligo | 4 fold over no oligo | 
B13 |  |  |  |  |  | activity (ZFPm4-VP64): ≥ 2 fold activation
